From patent EP3831849A1 (LamKap Bio beta AG, dated 2021) come the findings set out here.

Changes are numbered by the printed parent chain.

What is called EC50 is the concentration that produces a half-maximal response.

B1: AC42K2 H-CL1 (bispecific antibody, human IgG1, kappa, lambda)
heavy: not shown
light 1: not shown
light 2: DIQMTQSPSSLSASVGDRVTITCRASQSISSYLNWYQQKPGKAPKLLIYAASSLQSGVPSRFSGSGSGTDFTLTISSLQPEDFATYYCQQMHPRAPKTFGGGTKLTVLGQPKAAPSVTLFPPSSEELQANKATLVCLISDFYPGAVTVAWKADSSPVKAGVETTTPSKQSNNKYAASSYLSLTPEQWKSHRSYSCQVTHEGSTVEKTVAPTECS
notes: CEACAM5xCD47 κλ body, IgG1, common heavy chain; CEACAM arm light chain fully kappa, CD47 arm light chain hybrid
B2: K2AC58 (bispecific antibody, human IgG1, kappa, lambda)
heavy: not shown
light 1: QSVLTQPPSVSGAPGQRVTISCTGSSSNIGVAHDVHWYQQLPGTAPKLLIYDYSERPSGVPDRFSGSKSGTSASLAITGLQAEDEADYYCQSWDNGPNGLVWVFGGGTKLTVLGQPKAAPSVTLFPPSSEELQANKATLVCLISDFYPGAVTVAWKADSSPVKAGVETTTPSKQSNNKYAASSYLSLTPEQWKSHRSYSCQVTHEGSTVEKTVAPTECS
light 2: not shown
B3: K2AC59 (bispecific antibody, human IgG1, kappa, lambda)
heavy: not shown
light 1: B2 light 1 with G96S, P97E, V101I, W102Y
light 2: not shown
B4: AC45 (antibody, human IgG1, lambda, V domains shown)
VH: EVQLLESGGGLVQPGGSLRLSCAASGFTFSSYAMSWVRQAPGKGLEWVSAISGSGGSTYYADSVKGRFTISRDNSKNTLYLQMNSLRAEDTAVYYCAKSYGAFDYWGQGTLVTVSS
VL: QSVLTQPPSASGTPGQRVTISCSGSSSNIVGVGVNWYQQLPGTAPKLLIYSYNKRPSGVPDRFSGSKSGTSASLAISGLQSEDEADYYCAAYDADMIVPAPVFGGGTKLTVLG
notes: Bivalent IgG1 mAb; 6 carries the IgG1 Fc
B5: AC44 (antibody, human IgG1, lambda, V domains shown)
VH: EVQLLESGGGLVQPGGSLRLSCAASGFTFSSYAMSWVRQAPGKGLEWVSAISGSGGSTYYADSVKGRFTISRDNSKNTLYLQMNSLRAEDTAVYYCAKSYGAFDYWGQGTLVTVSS
VL: B4 VL with A94F, D95L, M96P, I97V, V98L
notes: as for B4
B6: AC43 (antibody, human IgG1, kappa, V domains shown)
VH: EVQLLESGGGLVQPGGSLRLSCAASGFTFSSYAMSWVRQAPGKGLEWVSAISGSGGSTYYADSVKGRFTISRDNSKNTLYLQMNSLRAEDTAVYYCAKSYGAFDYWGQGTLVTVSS
VL: DIQMTQSPSSLSASVGDRVTITCQASQNIPRTINWYQQKPGKAPKLLIYDISNLETGVPSRFSGSGSGTDFTFTISSLQPEDIATYYCQQVGLNPELTTFGQGTKVEIKR
notes: as for B4
B7: AC60 (antibody, human IgG1, kappa, V domains shown)
VH: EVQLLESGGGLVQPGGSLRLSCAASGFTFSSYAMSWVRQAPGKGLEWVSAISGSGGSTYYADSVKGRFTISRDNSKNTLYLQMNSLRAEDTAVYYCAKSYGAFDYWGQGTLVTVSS
VL: B6 VL with P95W, E96D, L97D, T98R, T99A
notes: Bivalent IgG1 mAb; 6 carries the IgG1 Fc; 167 is the one used in the embodiments
B8: AC64 (antibody, human IgG1, kappa, V domains shown)
VH: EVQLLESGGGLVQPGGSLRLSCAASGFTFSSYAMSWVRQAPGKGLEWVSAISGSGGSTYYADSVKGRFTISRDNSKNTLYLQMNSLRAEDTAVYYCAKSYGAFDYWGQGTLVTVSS
VL: B6 VL with G92T, N94E, L97E, T98L
notes: as for B4
B9: AC42 (antibody, human IgG1, kappa, V domains shown)
VH: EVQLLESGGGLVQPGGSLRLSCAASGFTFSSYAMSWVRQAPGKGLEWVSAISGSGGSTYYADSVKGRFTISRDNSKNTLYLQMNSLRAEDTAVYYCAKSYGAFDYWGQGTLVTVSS
VL: B6 VL with N28R, P30A, I33L, D50N, I51F, N53A, N94D, E96N
notes: as for B4
B10: AC61 (antibody, human IgG1, kappa, V domains shown)
VH: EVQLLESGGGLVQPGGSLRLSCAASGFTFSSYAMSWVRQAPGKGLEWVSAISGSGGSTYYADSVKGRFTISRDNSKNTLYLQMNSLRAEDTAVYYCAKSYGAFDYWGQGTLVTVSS
VL: B6 VL with G92T, N94D, L97E, T98M
notes: as for B4
B11: AC63 (antibody, human IgG1, kappa, V domains shown)
VH: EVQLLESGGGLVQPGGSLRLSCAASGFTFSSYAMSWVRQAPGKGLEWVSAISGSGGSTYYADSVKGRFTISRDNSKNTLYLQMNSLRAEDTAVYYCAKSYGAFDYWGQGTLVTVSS
VL: B6 VL with Q90S, G92T, N94W
notes: as for B4
B12: AC62 (antibody, human IgG1, kappa, V domains shown)
VH: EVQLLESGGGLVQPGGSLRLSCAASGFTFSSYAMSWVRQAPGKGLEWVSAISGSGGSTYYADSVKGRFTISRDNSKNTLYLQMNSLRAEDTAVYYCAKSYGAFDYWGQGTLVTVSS
VL: B6 VL with G92T, N94E
notes: as for B4
B13: AC66 (antibody, human IgG1, kappa, V domains shown)
VH: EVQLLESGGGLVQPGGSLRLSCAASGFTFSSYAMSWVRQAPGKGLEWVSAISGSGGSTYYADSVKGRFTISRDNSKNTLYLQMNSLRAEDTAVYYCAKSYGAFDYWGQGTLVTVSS
VL: B6 VL with G92T, N94D, L97E, T98N
notes: as for B4
B14: AC65 (antibody, human IgG1, kappa, V domains shown)
VH: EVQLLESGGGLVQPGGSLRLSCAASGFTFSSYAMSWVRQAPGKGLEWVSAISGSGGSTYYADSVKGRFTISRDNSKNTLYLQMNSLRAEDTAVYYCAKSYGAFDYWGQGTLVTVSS
VL: B6 VL with Q89G, Q90S, G92T
notes: as for B4
B15: AC41 (antibody, human IgG1, kappa, V domains shown)
VH: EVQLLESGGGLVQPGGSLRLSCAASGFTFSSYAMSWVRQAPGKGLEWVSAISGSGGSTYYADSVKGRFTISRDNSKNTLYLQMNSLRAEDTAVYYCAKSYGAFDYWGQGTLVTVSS
VL: B6 VL with N28E, P30A, R31A, I33L, D50N, I51Y, N53T, L97N
notes: as for B4

The first test has as its target T1, human CEACAM5 expressed on MKN-45 wt cells (human, UniProt P06731 35-702).
T1 construct: MKN-45 cells also express CD47 and CEACAM6; also called CEACAM5 on MKN45
T1 sequence: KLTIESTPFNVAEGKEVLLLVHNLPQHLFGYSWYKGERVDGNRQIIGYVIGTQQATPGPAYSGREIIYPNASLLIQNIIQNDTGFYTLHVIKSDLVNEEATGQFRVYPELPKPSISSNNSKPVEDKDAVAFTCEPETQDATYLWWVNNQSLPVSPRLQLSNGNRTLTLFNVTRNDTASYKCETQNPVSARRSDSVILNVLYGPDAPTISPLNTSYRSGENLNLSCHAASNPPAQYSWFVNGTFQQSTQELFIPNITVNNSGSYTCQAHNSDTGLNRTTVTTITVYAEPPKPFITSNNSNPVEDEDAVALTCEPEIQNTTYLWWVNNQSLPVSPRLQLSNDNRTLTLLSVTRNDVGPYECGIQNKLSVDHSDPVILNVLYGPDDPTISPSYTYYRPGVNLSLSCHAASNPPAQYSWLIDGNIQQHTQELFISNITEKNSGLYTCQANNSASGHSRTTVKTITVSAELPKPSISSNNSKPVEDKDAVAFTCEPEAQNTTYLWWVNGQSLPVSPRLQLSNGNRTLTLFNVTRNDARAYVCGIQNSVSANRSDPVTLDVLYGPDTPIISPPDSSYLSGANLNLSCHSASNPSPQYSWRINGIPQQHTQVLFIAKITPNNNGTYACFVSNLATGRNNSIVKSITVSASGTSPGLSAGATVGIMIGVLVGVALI
Nature of the test: flow cytometry on MKN-45 wt cells (express CEACAM5 and CD47).
Regarding B1, a half-maximal effect (EC50) was put at 129 nM and the “Emax (MFI)” value was determined as 1.84e+06 MFI.
Taken in the same sequence, the figures for B2 were 20 nM and 300000 MFI.
B3: the EC50 worked out at 26 nM and the “Emax (MFI)” value amounted to 400000 MFI.

The next test deals with T2, biotinylated recombinant human CEACAM5 (human, UniProt P06731 35-685, biotin on the C-terminal Avitag).
T2 construct: also called CD66e; not shown: C-terminal Avitag plus hexa-histidine tag, human Fc or mouse Fc
T2 sequence: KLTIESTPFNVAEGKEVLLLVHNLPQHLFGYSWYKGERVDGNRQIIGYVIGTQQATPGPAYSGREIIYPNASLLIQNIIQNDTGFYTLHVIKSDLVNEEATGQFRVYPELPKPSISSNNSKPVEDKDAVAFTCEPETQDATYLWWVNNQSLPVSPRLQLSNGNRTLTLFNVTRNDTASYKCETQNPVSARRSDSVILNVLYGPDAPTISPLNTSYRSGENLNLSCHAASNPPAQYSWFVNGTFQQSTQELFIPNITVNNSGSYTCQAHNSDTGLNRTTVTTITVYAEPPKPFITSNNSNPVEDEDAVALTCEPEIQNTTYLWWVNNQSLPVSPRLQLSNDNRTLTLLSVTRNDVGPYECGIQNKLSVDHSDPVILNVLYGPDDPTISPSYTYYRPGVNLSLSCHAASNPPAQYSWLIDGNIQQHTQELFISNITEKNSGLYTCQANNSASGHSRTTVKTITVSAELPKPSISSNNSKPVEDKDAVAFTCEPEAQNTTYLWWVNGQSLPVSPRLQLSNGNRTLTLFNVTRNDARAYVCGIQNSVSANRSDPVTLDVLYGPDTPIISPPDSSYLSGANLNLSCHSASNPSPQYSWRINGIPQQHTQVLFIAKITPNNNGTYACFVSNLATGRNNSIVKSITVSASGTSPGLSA
Briefly: ELISA; biotinylated recombinant protein on streptavidin plate; bivalent mAb titrated. (An ELISA detects its analyte on a solid surface through an enzyme-linked reagent.)
As to B4, the EC50 was found to be 0.1 nM.
The same measure, in the same setting: the value for B5 was 0.09 nM; that for B6 was 0.08 nM; that for B7 was 0.013 nM.
In the case of B8, the EC50 was 0.016 nM.
On the same count and under the same terms, the result for B9 reads 0.1 nM; that for B10, 0.008 nM; that for B11, 0.016 nM.
The same measure, in the same setting: the value for B12 was 0.012 nM.
For the molecule B13, the EC50 is 0.012 nM.
The same measure, in the same setting: the result for B14 reads 0.014 nM; that for B15, 0.3 nM.

The target in another test is T3, recombinant cynomolgus monkey CEACAM5 (cynomolgus monkey (macaca fascicularis)).
T3 construct: also called cyno CEACAM5; cynomolgus CEACAM5
The description is as above.
Consider B4, for which the EC50 amounted to 0.03 nM.
As for B5, the EC50 was found to be 0.07 nM.
With B6, the EC50 amounted to 0.7 nM.
B7: the EC50 turned out to be 0.06 nM.
Take B8: the EC50 worked out at 0.03 nM.
The same measure, in the same setting: the result for B9 reads 0.6 nM.
As to B10, the EC50 is 0.02 nM.
Consider B11, for which the EC50 came out at 0.02 nM.
In the case of B12, the EC50 was 0.01 nM.
Still for that read-out and setting: the result for B13 reads 0.01 nM; that for B14, 0.03 nM; that for B15, 0.6 nM.
